Data taken from the DeepSol protein solubility set.

Assay: soluble on expression in E. coli; label from the status in PepcDB or PDB records

Row | Sequence | soluble on expression in E. coli
1 | MISKDEILEIFDKYNKDEITIATLGSHTSLHILKGAKLEGFSTVCITMKGRDVPYKRFKVADKFIYVDNFSDIKNEEIQEKLRELNSIVVPHGSFIAYCGLDNVENSFLVPMFGNRRILRWESERSLEGKLLREAGLRVPKKYESPEDIDGTVIVKFPGARGGRGYFIASSTEEFYKKAEDLKKRGILTDEDIANAHIEEYVVGTNFCIHYFYSPLKDEVELLGMDKRYESNIDGLVRIPAKDQLEMNINPSYVITGNIPVVIRESLLPQVFEMGDKLVAKAKELVPPGMIGPFCLQSLCNENLELVVFEMSARVDGGTNSFMNGGPYSFLYNGEPLSMGQRIAREIKMALQLDMIDKIIS | soluble
2 | MISKRPDIYTQHDKAFSAVSAYVVLNSANERVATVALKFPCDGAGRLYAYVHWVGLEMVRGWAGGYGYDKRSAACASAARRIAIGNLTGDEWTNRRHEATAFVEALEKDSGEDWTRQLEAAGFKVFQAV | not soluble
3 | MISLNNRLTTVSRFLKQGTIADIGSDHAYLPIYAIQNHLCECGIAGEVIQGPFQAAVKNVAANHLVERIDVRLGDGLSVIHPEDVIDNITICGMGGPLIAKILKDGQDKLSQHPRLILQSNIQTENLRQTLQQLNYEIIDEIIMEEKGHIYEIVVA | not soluble
4 | MISLPIDAVVPALRQALGAQHQAVLEAPPGAGKTTRVPLALLDEPWLAGQRILMLEPRRLAARAAAERLAAELGEKVGETVGYRIRLESRVGPKTRIEVVTEGILARRLQDDPALDGVGLVIFDEFHERSLDADLALALTLNGRELLRDEPPLKVLVMSATLEGERLAALLGEAPVVRSEGRMFPVDIRWGRPAQPGEFIEPRVQQAVLQALAEESGSVLVFLPGQAEIRRVHEGLREALGGRPEVLLCPLHGELDLAAQRAAIEPASRGTRKVVLATNIAETSLTIDGVRVVIDAGLARVPRFDPGSGMTRLETQRISRASATQRAGRAGRLEPGVCYRLWSESQHEQLPAYGTAEILQADLAGLALQLARWGVAPEELAWLDAPPAAAYAQARELLGRLGALNASGALSAHGQAMAELPTHPRIAHLLLRGQALGLGELACDVAALLGERDIQRGGGADLHSRLALLAGEARTGASRGAVQRARQLARQFRGYLRGAASEAVVDPGHPRWLGCLLAFAYPDRIARQRRAGGGDYRLANGRAAQFGEPDSLMKQPWLVIADLGSRQGQREERIYLAAELDPRLFDTVLAEQVSQRDELQWDEREGVLRAERQRRVGELVLSSEALPGLDEAARSQALLGLVRRKGLELLPWTPELRQWQARIGLLRRLDLEDKGESEWPDVSDAALLERLEEWLPAYLGKVTRLAHFANLDLASILAGLLPWPLPQRLDEWAPKTLEVPSGSRIRLDYSETPPILAVRLQELFGLGDTPRIAQGRLAVKLHLLSPAHRPVQVTQDLANFWRSTYAEVRKDLKGRYPKHYWPDDPLVAEATARAKPR | not soluble
5 | MISLTQQVSAVRLDTHKSDTFEQNDLVLDNTGAVLSGSRDALIRRLVPTRDFCPDESYIFSLLVNIRTFISPHELMQKIVQYCMFAQNADSHNFAKEGRGRMFAHILRLCSEWATNIPYDFKTEYMRTRLNELLRLCAVDKTYQQKTTELQSTLRSSLNKLDRYEKAVANLQKALSENTNLPEQSDSMTGLFVLCNDAKTVAQQLTHIEMERFSMVGVDEIVQSLASDPLSEIGRHSKNKEGTISSISFYIEWFNRLSAFAAIEVLKQTKKRNRVAVFEFMIDIAKECCEIGNFNSMMAIVAGLSLPAVSRLKKTWCRVEKAKLEILQHQLDPSGNFLSYRATIKAAQWRADSARGNQQKIVIPFFVLLLKDLFLIYHGHPRILPNAHLNFMAFNQLAEQLRDVIQWKSTVCTFEKNPQVLQYLLITSVSGEKDSMLMSFECEPPESSSERDQHKKLKGGK | not soluble
6 | MISNQILQNTIEGLKGISRIDFCVLDTEGKALATTFEDTWNYESAVLSFVESPADSQVIQGCQFFKIFDEQQLEYVLLAGGESEDVYMLGKIAAFQVQSLLVAYKERFDKDNFIKNLLLDNLLLVDIYNRAKKLHIDTEAKRVIFIIETSHEKDSVALDNVRNLLGGKSRDFVTAVDEKNIIVVKELADKAGSRELEKMAKEMMEILRAESEDDKIHIAYGTVVNDIKEVSKSYKEAKLALDVGKIFFDEKDIVAYSTLGIGRLIYQLPIPLCKMFIKEIFEGKSPDEFDEETLTTINKFFENSLNVSETSRQLYIHRNTLVYRLDKLQKSTGLDLRVFEDAITFKIALMVVKYMKYMETLEY | not soluble
7 | MISQVRIMDVIKPLGSFIQQDGMPVFGHLSAIPRSLDLESFQYLNEMDNPVSKWRKHFDYKQFQFVSLVTPDYVVGIAIADIRYLASGFCYLFDIKRNALTEQQWLKPCQLGYQTQPSSWLSKAHLANNTIQFSIEEGQWHVQFVTPSVNANITLHPQPQSLPLMLSTPTGYSGWTYTQKHNAMTVTGNLFILGEEQDLSQVAAGYDFSAGYMRRETSWRWASINHKDGDKSLGLNLAAGVNETGFCENVLWVDGERHLLNPVQFQFSRQNPRTDWRITSEDGCVDLVFEPINQRSEKKNFWFLKSNFRQYIGHFSGFVVDGNGSKHELDGVVGLTEDHYAKW | not soluble
8 | MISVFDIYKIGVGPSSSHTVGPMKAGKEFIDDLRAMGKLRDITKITVDVYGSLSLTGKGHHTDIAIIMGLAGNSPEKVDIDSIPGFIARVEETERLPVGMHCHTVSFPREGGMNFHKTNLELHENGMQIHAWIDDEKVYSKTYYSIGGGFIVDEENFGK | not soluble
9 | MITCLPLLAGEGARRKGDIGMRNKNKRLAQYATELRRNMTDAEYALWYHLRNKLFCGIRFNRQVIIGHYIVDFCSRKLKLVIELDGIQHVEQEQYDLERTKFLTAQGYKVIRFWNDEVLKNIDNVLEAIYVEIEHLSPPHFGSSPHKWVEPRLEVLK | not soluble
10 | MITFQEFVNYWFEAYAKIAVKQSTQKRYRELLIPAIKAIGTKPLSDIKPLDIQKIYMNLTGKLSDSTILKLHRLLHEIFKHAVMWEYISDNPVKKVLPPSPELEHHHHHH | soluble
11 | MITRIPRSSFSANINNTAQTNEHQTLSELFYKELEDKFSGKELATPLLKSFSENCRQNGRHIFSNKDFVIKFSTSVLQADKKEITIINKNENTTLTQTIAPIFEKYLMEILPQRSDTLDKQELNLKSDRKEKEFPRIKLNGQCYFPGRPQNRIVCRHIAAQYINDIYQNVDYKPHQDDYSSAEKFLTHFNKKCKNQTLALVSSRPEGRCVAACGDFGLVMKAYFDKMESNGISVMAAILLVDNHALTVRLRIKNTTEGCTHYVVSVYDPNVTNDKIRIMSESKENIKHYSLMDFMNVDYSLLKWSNDHVINQSVAIIPALPKEQLLMLKGSVDEITPPLSPATMNLLMAIGQNHQLTQLMIQLQKMPELHRTEMLTAYNSINLPGLYLAINYGNADIVETIFNSLSETGYEGLLSKKNLMHILEAKDKNGFSGLFLAISRKDKNVVTSILNALPKLAATHHLDNEQVYKFLSAKNRTSSHVLYHVMANGDADMLKIVLNALPLLIRTCHLTKEQVLDLLKAKDFYGCPGLYLAMQNGHSDIVKVILEALPSLAQEINISASDIVDLLTAKSLARDTGLFMAMQRGHMNVINTIFNALPTLFNTFKFDKKNMKPLLLANNSNEYPGLFSAIQHKQQNVVETVYLALSDHARLFGFTAEDIMDFWQHKAPQKYSAFELAFEFGHRVIAELILNTLNKMAESFGFTDNPRYIAEKNYMEALLKKASPHTVRAAALEHHHHHH | not soluble
12 | MITVKNIEGSETYVLRQKILRPNQTLADCKYPSDYETDTFHLGAFINDQLISIASFSKEMHPDLQAGMHYRLRGMATLPEFRNNHAGSSLIQKAEQILQERQANMLWCNGRITVADYYKRLGFQEHGEIFEIEPIGLHKVLYKRI | not soluble
13 | MIVLPRRLSDEVADRVRALIDEKNLEAGMKLPAERQLAMQLGVSRNSLREALAKLVSEGVLLSRRGGGTFIRWRHDTWSEQNIVQPLKTLMADDPDYSFDILEARYAIEASTAWHAAMRATPGDKEKIQLCFEATLSEDPDIASQADVRFHLAIAEASHNIVLLQTMRGFFDVLQSSVKHSRQRMYLVPPVFSQLTEQHQAVIDAIFAGDADGARKAMMAHLSFVHTTMKRFDEDQARHARITRLPGEHNEHSREKNA | soluble
14 | MIVNRNPFEQLPSLAINPEDFDVLYSAETFRTRLLDAISKATSRIYLVALYLEDDEAGREILTALYEAKQRNPGLDINICVDWHRAQRGLIGAETSEGNSALYKAFADQYQHAIPVYGIPVRGREVFGVLHLKGFVVDDTVIYSGASLNNVYLQYHGRYRFDRYHVIKHKSLADTMVNFVQNEMIAHPAVNDLADRDKPETKEIKSAIRQLRSSLAQANYQFAHEAAAEDKVKITPLVGLGKRRNLLNQQIVKLLAAAQNEIFICTPYFNFPKSIHREVKRAMKRGVKVTIVVGDKTANDFYISPEEDFKTIGGLPYLYEVNLRRFAKANEANIAARKLSVHLWKHENNSFHLKGIWVDKRYMLLTGNNLNPRAWSLDLENGLLIQDDYANLTHKFEDEVARILEHTQLICTYKQLEKVEDYPLAVQKLVRKITRLKADGVLKRILLEHHHHHH | soluble
15 | MIVPGGFPAPVTGSAVAASPPLPTVRLLSLDAHGRVLDWINWQDAACLYARDAVSWTLGEPCMQIHGGVSRLTGERSVLELHPIIAARGHARSRALDPTPTLTNTALFARDSQLCMYCGQHFSRPHLTRDHVMPVSKGGRDSWENVVTACFQCNSRKANRTPQQAHMPLLAVPYRPSWIEHLILSNRNILSDQMAFLRAQLPKRSKLSLLEHHHHHH | not soluble
16 | MIVQKELVAIYDYEVPVPEDPFSFRLEIHKCSELFTGSVYRLERFRLRPTFHQRDREDADPLINDALIYIRDECIDERKLRGESPETVIAIFNRELQNIFNQEIE | soluble
17 | MIVSFMENYSDALNDIFQSLADPTRRAVILRLGGGEASIGTLAEPFAMALPSFMKHIRQLEEAGLIVTRKQGRVRFCSLEKQRFSMLDGWLSQQRAVWEGRTDRLEQFVMAQQDRMSSKGENDQ | not soluble
18 | MIVTTAGRTNKEMTDYANEVAAELNASFVKRNDIPVHKLHEQYEQDVLVVGKNRLAIYPKGTEESFFFHPNSAMFRVKRLMRGEHDPFVQATQLERGMTVLDCTLGMASDSIVASYVVGESGKVTGLEGNEYMAYIMENGLKTWSSSVSEIDEAMQRIQVKQTEHFSFLAQCEDNSYDVVYLDPMFEETVIESDGIKGLKHFALYHDITDETIAEAKRVARKRVVLKDHFRSSRFEKHNFYVYKRKSAKFHFGVIDPC | not soluble
19 | MIYEFCAENVTLLEKAMQAGARRIELCDNLAVGGTTPSYGVTKAAVELAANYDTTIMTMIRPRGGDFVYNDLEIAIMLEDIRLTAQAGSQGVVFGALTADKKLDKPNLEKLIAASKGMEIVFHMAFDELSDEDQAEAIDWLSQAGVTRILTRAGVSGDSLEKRFVHYHRILEYAKGKIEILPGGGIDLENRQTFIDQVGVTQLHGTKVVFLEHHHHHH | soluble
20 | MKAITLLSSGLDSVAALAIAAESLEIEMAITFDYGQRAGQREMEYSEKVCEHFGIEQRIIKLDWLGEITHTSLVNRDEEVPSLSFEDIDENSPSMITEYSAKAVWVPNRNGVMLNIAGSFAESRGCDYIVVGFNGEEAGTFPDNSRDYIQAVDNAFSYSTQNGVKVLAPLAEMGKTEIVKKALEAEAPLEYSWSCYHGGEIPCGKCESCVRRARAFKNIGIKDPLLERLGI | not soluble
21 | MKALHFGAGNIGRGFIGKLLADAGIELTFADVNQTVLDALNARHSYQVHVVGENEQVDTVSGVNAVSSIGDEVVDLIAEVDLVTTAVGPVVLERIAPAIAKGLAQRKAQGTERPLNIIACENMVRGTTQLKGHVFNALAEEHKAWVEAHIGFVDSAVDRIVPPSASATHDPLEVTVETFSEWIVDKTQFKGALPTIPGMELTDNLMAFVERKLFTLNTGHAITAYLGKLAGHQTIRDAILDEKIRAVVQGAMEESGAVLIKRYAFDPQKHAAYIQKILGRFENPYLKDDVERVGRQPLRKLSAGDRLIKPLLGTLEYGLPHRNLVKGIAAAMHFRSEDDPQAQELAALIADKGPQAALAQISGLDAASDVVAEAVNDYNAEK | not soluble
